Test results taken from the supplement of paper PMC12667976.

B1: library; numbered along this chain (parent)
chain: MATDAALRRLLRLHRTEIAVAVDSAFPLLHALADHDVVPEDKFQETLHLKEKEGCPQAFHALLSWLLTQDSTAILDFWRVLFKDYNLERYGRLQPILDSFPKDVDLSQPRKGRKPPAVPKALVPPPRLPTKRKASEEARAAAPAALTPRGTASPGSQLKAKPPKKPESSAEQQRLPLGNGIQTMSASVQRAVAMSSGDVPGARGAVEGILIQQVFESGGSKKCIQVGGEFYTPSKFEDSGSGKNKARSSSGPKPLVRAKGAQGAAPGGGEARLGQQGSVPAPLALPSDPQLHQKNEDECAVCRDGGELICCDGCPRAFHLACLSPPLREIPSGTWRCSSCLQATVQEVQPRAEEPRPQEPPVETPLPPGLRSAGEEVRGPPGEPLAGMDTTLVYKHLPAPPSAAPLPGLDSSALHPLLCVGPEGQQNLAPGARCGVCGDGTDVLRCTHCAAAFHWRCHFPAGTSRPGTGLRCRSCSGDVTPAPVEGVLAPSPARLAPGPAKDDTASHEPALHRDDLESLLSEHTFDGILQWAIQSMARPAAPFPS

Variants of: B1
Assay: AIRE transcriptional activation functional score (insulin promoter-GFP; nonsense median 0, synonymous median 1) (normalised score); higher = higher AIRE activity (more reporter activation)
Conditions: with insulin promoter-GFP reporter in HEK293
Outline: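 Functional scores come from comparing select with non-select enrichment of each variant and subtracting wild type. Codon-optimized AIRE NNN-codon libraries across three regions were integrated via Bxb1 recombinase into HEK293 landing-pad cells with an insulin core promoter-GFP reporter, and integrants sorted at day 7 were expanded 7 days before top 10% GFP and unselected populations were tile-sequenced. Variants needed 10 counts per million in non-select, and values were rescaled to nonsense median 0 and synonymous median 1 before averaging over biological replicates.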

AIRE transcriptional activation functional score: each site, then its substitutions
K395: D 0.353; C 0.49; E 0.701; I 0.422; V 1.34; Q 1.35; A 0.786; L 1.38; H 0.628; M 2.5; N 0.081; F 0.828; R -0.166; T 0.901; Y 1.47; W 0.234; S 0.558
P400: F 0.712; N 0.58; Q 1.52; T 0.851; W 1.89; A 1.56; V 0.815; D 0.319; C 0.972; I 0.76; G 1.13; S 0.846; L 0.451; Y 1.69; R 1.16; H 0.71; E 0.545
V393: W 1.67; S 0.746; Q -0.242; G 1.28; Y 0.561; P 0.254; A 1.04; E 0.991; M 0.98; R 0.0991; L 1.2; N 1.09; D 0.48; T 1.14; C 1.11
G387: V 1.5; Y 1.72; S 0.84; W 1.52; T 1.22
A403: T 1.14; Q 0.915; E 1.14; C 0.942; N 1.09; S 0.725; Y 0.507; K 1.06; F 1.09; D 0.541; P 0.99; G 1.26; I 1.5; L 1.29; H 1.02; V 1.29; R 0.877; W 1.72; M 1.38
S402: L 0.984; G 1.34; I 0.78; E 0.833; D 0.871; T 0.974; N 1.13; W 1.22; R 1.02; Q 0.546; V 0.921; F 0.518; Y 1.17; M 0.776; A 1.05; C 1.1; K 0.894; H 1.48; P 1.07
M388: F 1.15; Q 0.232; E 0.756; T 0.897; S 0.824; P 1.14; R 0.983; C 0.979; G 0.832; W 1.46; L 1.17; K 1.05; I 0.924; Y -0.0355; D 0.8; A 0.871; N 0.557; V 1.49; H 1.2
T390: E -0.73; W 1.51; K 1.1; S 0.817; Q 0.868; R 1.02; A 0.741; V 1.25; N 1.09; D 0.833; I 0.876; P 0.842; F 1.29; G 1.17; Y 1.62; L 1.23; C 0.472
L406: F 0.76; A 0.954; H 1.19; D 0.772; I 1.19; C 1.3; G 1.08; E 1.12; K 0.516
A399: L -0.706; K 0.799; W 1.2; H 1.63; R 0.779; N 0.798; F 1.64; V 0.911; Q 0.327; Y -0.0769; G 0.994; I 0.768; P 1.38; E 0.88; T 0.845; M 1.22; S 0.793; C 1.18
P398: E 0.984; I 1.23; R 0.958; V 1.31; T 1.21; K 1.04; G 1.14; N 0.615; Q 1.31; M 0.82; Y 1.69; D 0.585; A 1.09; F 1.43; S 0.979; W 1.64; L 1.5; H 1.24; C 0.359
L392: Q 1.18; T 0.53; A 0.196; I 1.7; G 0.912; W 1.22; V 1.36; H 0.636; R 1.06; K 1.14; F 1.15; E 0.303; P 0.582; N 0.909; S 1.43; M 0.734
A404: D 0.792; W 1.16; M 0.918; E 0.954; Y 1.3; L 1.26; T 1.04; H 1.66; V 0.729; C 0.451; G 0.91; Q 0.81; I 0.94; K 1.05; R 1.01; F 1.26; S 1.02; P 1.28
Y394: L 1.07; M 1.13; V 0.926; C 0.576; I 0.972; H 0.428; S 0.848; F 0.973; A 0.692; Q -0.333; E 0.49; R 0.595; G 0.882; D 0.711; K 0.301; W 0.755; P 1.43; T 0.126; N 0.966
D389: L 0.218; K 0.278; G 0.913; N 1.22; Q -0.15; R 0.387; P 0.951; E 0.728; M -0.143; I -0.197; H 1.2; T 1.23; W 0.0908; C 0.869; F 0.472; V 0.292; A 1.04; Y 0.964; S 1.24
P405: K 1; H 1.04; R 0.984; Q 0.685; S 1.05; V 1.21; T 1.16; N 1.22; G 0.341; C 1.59; E 0.742; I 1.59; F 1.03; Y 1.17; L 0.801
P401: I 0.809; K 1.55; T 0.717; E 1.49; M 0.689; G 1.14; D 1.07; C 1.7; Q 1.18; R 1.15; S 1.25; V 0.635; Y 1.14; F 0.595; N 1.09; A 0.611; L 0.646; H 1.01
H396: K 1.61; S 0.606; Y 1.44; P 1.02; Q 1.12; T 0.549; V 1.25; G 0.899; E -0.185; F 1.15; C 1.33; W 1.28; R 1.03; A 0.663; L 1.69; N 1.09; D 0.156; I 1.17
L397: Y 0.779; S 0.938; M 0.0442; E 0.622; T 0.852; G 0.775; C 0.827; K 0.921; H 0.0686; D 0.808; F 0.99; W 0.989; V 0.641; A 0.914; P 0.66; N 0.167; R 0.938; I 0.407; Q 1.36
T391: V 1.16; E 0.539; L 1.06; C 0.542; Q 0.725; M 1.02; Y 1.45; G 0.941; R 1.15; W 1.58; K 0.54; I 1.29; P 0.882; D 0.889; H 1.17; F 1.41; A 1.09; S 0.957
